The subject of one data set is biotinyl-Ile-oxazolone. Nature of the data set: self-aminoacylation, catalytic enhancement (BIO) (fold over background); higher = more active; k-Seq, kA / k0A0; sequences stand for … in GGGAAUGGAUCCACAUCUACGAAUUC…UUCACUGCAGACUUGACGAAGCUG
Summed up:
(§1)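 Mutagenized RNA pools with a 21-nt variable region (0.43 μM) reacted with each biotinyl-aminoacyl-oxazolone at 2–1250 μM. Reactions ran in 50 μL HEPES/NaCl/KCl/MgCl2/CaCl2 buffer with 5% acetonitrile, pH 6.9–7.0, for 90 minutes at room temperature. Streptavidin-captured RNA was quantified by triplicate qPCR and Illumina sequencing, and per-sequence fraction reacted was fit to a pseudo-first-order model with 1000 bootstraps. Catalytic enhancement is median kA divided by the uncatalyzed rate, the low-activity peak of a bimodal Gaussian fit.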

A further data set concerns biotinyl-Val-oxazolone. Put plainly: self-aminoacylation, catalytic enhancement (BVO) (fold over background); higher = more active; k-Seq, kA / k0A0; sequences stand for … in GGGAAUGGAUCCACAUCUACGAAUUC…UUCACUGCAGACUUGACGAAGCUG
Summed up:
as §1

A further data set relates to biotinyl-Met-oxazolone. Nature of the data set: self-aminoacylation, catalytic enhancement (BMO) (fold over background); higher = more active; k-Seq, kA / k0A0; sequences stand for … in GGGAAUGGAUCCACAUCUACGAAUUC…UUCACUGCAGACUUGACGAAGCUG
Summed up: as §1

The test system of another data set is biotinyl-Leu-oxazolone. Put plainly: self-aminoacylation, catalytic enhancement (BLO) (fold over background); higher = more active; k-Seq, kA / k0A0; sequences stand for … in GGGAAUGGAUCCACAUCUACGAAUUC…UUCACUGCAGACUUGACGAAGCUG
The method, boiled down:
as §1

Another data set deals with biotinyl-Phe-oxazolone. Nature of the data set: self-aminoacylation, catalytic enhancement (BFO) (fold over background); higher = more active; k-Seq, kA / k0A0; sequences stand for … in GGGAAUGGAUCCACAUCUACGAAUUC…UUCACUGCAGACUUGACGAAGCUG
Summed up:
as §1

Another data set deals with biotinyl-Trp-oxazolone. Nature of the data set: self-aminoacylation, catalytic enhancement (BWO) (fold over background); higher = more active; k-Seq, kA / k0A0; sequences stand for … in GGGAAUGGAUCCACAUCUACGAAUUC…UUCACUGCAGACUUGACGAAGCUG
Summed up:
as §1

Experimental findings from the supplement of paper PMC9233669 are described below.

Fewer inactive variants are shown than the library holds.

Take “AUUCACCUAGGUCAUCGGGUG [Fam2.2 aminoacylation ribozyme variant]”: the self-aminoacylation in the data set with biotinyl-Ile-oxazolone stood at 33.2; with biotinyl-Val-oxazolone, 28.4; with biotinyl-Met-oxazolone it was 60.1; in the data set on biotinyl-Leu-oxazolone it was 83.7; with biotinyl-Phe-oxazolone it was 486; in the data set on biotinyl-Trp-oxazolone, 45.6.

Consider “CUAUUUCGAACAAUCGGUCUG [Fam1A.1 aminoacylation ribozyme variant]”, for which the self-aminoacylation in the data set on biotinyl-Ile-oxazolone is 0.814; in the data set with biotinyl-Val-oxazolone, 0.793; with biotinyl-Met-oxazolone, 0.799; in the data set on biotinyl-Leu-oxazolone it was 0.697; with biotinyl-Phe-oxazolone, 0.664; with biotinyl-Trp-oxazolone, 0.67.

Turning to “CCAAACUUCAAGCAAUCGGUC [Fam1B.1 aminoacylation ribozyme variant]”, the self-aminoacylation with biotinyl-Ile-oxazolone is 1.19; with biotinyl-Val-oxazolone, 1.26; in the data set on biotinyl-Met-oxazolone, 1.02; with biotinyl-Leu-oxazolone it was 1.41; with biotinyl-Phe-oxazolone, 30.1; in the data set on biotinyl-Trp-oxazolone it was 15.6.

As to “CCUCACUCCAAGCAAUCGGUC [Fam1B.1 aminoacylation ribozyme variant]”, the self-aminoacylation turned out to be 1.03 with biotinyl-Ile-oxazolone; 0.947 in the data set on biotinyl-Val-oxazolone; 0.767 in the data set with biotinyl-Met-oxazolone; 0.915 in the data set with biotinyl-Leu-oxazolone; 5.18 in the data set with biotinyl-Phe-oxazolone; 2.39 in the data set on biotinyl-Trp-oxazolone.

As for “AAGUUUGCUGAUACUCGCAAG [Fam3.1 aminoacylation ribozyme variant]”, the self-aminoacylation in the data set with biotinyl-Ile-oxazolone worked out at 1.11; in the data set on biotinyl-Val-oxazolone, 0.897; in the data set on biotinyl-Met-oxazolone, 0.744; in the data set with biotinyl-Leu-oxazolone, 0.885; in the data set on biotinyl-Phe-oxazolone, 0.915; in the data set with biotinyl-Trp-oxazolone, 1.07.

Turning to “AUUACCCUCGUCAUCGAGUAA [Fam2.1 aminoacylation ribozyme variant]”, the self-aminoacylation in the data set with biotinyl-Ile-oxazolone came out at 0.904; in the data set on biotinyl-Val-oxazolone it was 1.02; in the data set on biotinyl-Met-oxazolone, 0.866; with biotinyl-Leu-oxazolone, 0.985; in the data set with biotinyl-Phe-oxazolone it was 0.716; in the data set with biotinyl-Trp-oxazolone, 0.978.

With “CUACUUCAAACCAUCGGUUUG [Fam1A.1 aminoacylation ribozyme variant]”, the self-aminoacylation is 0.815 with biotinyl-Ile-oxazolone; 1.03 in the data set on biotinyl-Val-oxazolone; 0.74 with biotinyl-Met-oxazolone; 0.895 in the data set with biotinyl-Leu-oxazolone; 0.597 in the data set on biotinyl-Phe-oxazolone; 0.624 with biotinyl-Trp-oxazolone.

As for “CCACCCUUCAAGCAAUCGCUC [Fam1B.1 aminoacylation ribozyme variant]”, the self-aminoacylation was determined as 1.65 with biotinyl-Ile-oxazolone; 2.28 in the data set on biotinyl-Val-oxazolone; 1.87 with biotinyl-Met-oxazolone; 2.55 in the data set with biotinyl-Leu-oxazolone; 0.977 in the data set on biotinyl-Phe-oxazolone; 2.73 with biotinyl-Trp-oxazolone.

For the sequence “AUUCACCUAGGGCAUCGGAUG [Fam2.2 aminoacylation ribozyme variant]”, the self-aminoacylation in the data set with biotinyl-Ile-oxazolone came out at 0.923; in the data set with biotinyl-Val-oxazolone, 0.873; with biotinyl-Met-oxazolone it was 0.506; with biotinyl-Leu-oxazolone, 0.894; in the data set on biotinyl-Phe-oxazolone, 0.411; with biotinyl-Trp-oxazolone, 0.646.

For the sequence “UUUCACCUAAGUCAUCGGGUG [Fam2.2 aminoacylation ribozyme variant]”, the self-aminoacylation in the data set with biotinyl-Ile-oxazolone was 5.08; with biotinyl-Val-oxazolone it was 5.74; in the data set on biotinyl-Met-oxazolone, 7.38; with biotinyl-Leu-oxazolone, 9.35; in the data set on biotinyl-Phe-oxazolone, 51.6; with biotinyl-Trp-oxazolone, 8.11.

For “CCUCACUUCAAGGAAUCGGUC [Fam1B.1 aminoacylation ribozyme variant]”, the self-aminoacylation in the data set on biotinyl-Ile-oxazolone turned out to be 0.76; in the data set with biotinyl-Val-oxazolone, 0.869; in the data set on biotinyl-Met-oxazolone, 0.946; in the data set on biotinyl-Leu-oxazolone, 0.936; with biotinyl-Phe-oxazolone, 6.28; with biotinyl-Trp-oxazolone it was 4.27.

In the case of “AAGUUCGCUAAUAGUCGGAAG [Fam3.1 aminoacylation ribozyme variant]”, the self-aminoacylation in the data set with biotinyl-Ile-oxazolone stood at 1.2; in the data set on biotinyl-Val-oxazolone it was 0.743; with biotinyl-Met-oxazolone, 0.621; with biotinyl-Leu-oxazolone, 1.17; in the data set with biotinyl-Phe-oxazolone, 2.48; with biotinyl-Trp-oxazolone, 1.07.

On to “AUUCACCUACGUCAUCGGGAG [Fam2.2 aminoacylation ribozyme variant]”, for which the self-aminoacylation with biotinyl-Ile-oxazolone turned out to be 0.803; with biotinyl-Val-oxazolone it was 0.861; with biotinyl-Met-oxazolone, 1.23; in the data set with biotinyl-Leu-oxazolone, 1.07; with biotinyl-Phe-oxazolone, 0.516; in the data set with biotinyl-Trp-oxazolone, 0.502.

Turning to “GAGUUUGCUACUAGUCGCAAG [Fam3.1 aminoacylation ribozyme variant]”, the self-aminoacylation came to 1.31 in the data set with biotinyl-Ile-oxazolone; 1.47 with biotinyl-Val-oxazolone; 1.04 in the data set with biotinyl-Met-oxazolone; 1.66 in the data set on biotinyl-Leu-oxazolone; 1.59 with biotinyl-Phe-oxazolone; 1.99 in the data set with biotinyl-Trp-oxazolone.

In the case of “AAGUUUGCUAAUAAUCGGAAG [Fam3.1 aminoacylation ribozyme variant]”, the self-aminoacylation in the data set on biotinyl-Ile-oxazolone worked out at 0.961; in the data set on biotinyl-Val-oxazolone it was 0.923; in the data set on biotinyl-Met-oxazolone, 0.973; with biotinyl-Leu-oxazolone it was 0.877; in the data set on biotinyl-Phe-oxazolone, 0.788; in the data set on biotinyl-Trp-oxazolone it was 0.66.

For the sequence “UUUCACCUAGGUCAUCGCGUG [Fam2.2 aminoacylation ribozyme variant]”, the self-aminoacylation with biotinyl-Ile-oxazolone was found to be 6.66; in the data set with biotinyl-Val-oxazolone, 6.67; in the data set on biotinyl-Met-oxazolone, 9.16; in the data set on biotinyl-Leu-oxazolone, 11.4; with biotinyl-Phe-oxazolone, 84; in the data set on biotinyl-Trp-oxazolone it was 9.42.

On to “GUACUUCAAACAAUUGGUCUG [Fam1A.1 aminoacylation ribozyme variant]”, for which the self-aminoacylation in the data set on biotinyl-Ile-oxazolone was found to be 1.36; in the data set with biotinyl-Val-oxazolone it was 1.16; in the data set on biotinyl-Met-oxazolone it was 1.18; in the data set with biotinyl-Leu-oxazolone, 1.34; in the data set on biotinyl-Phe-oxazolone it was 1.82; with biotinyl-Trp-oxazolone, 1.75.

Take “CCACACCUCAAGCCAUCGGUC [Fam1B.1 aminoacylation ribozyme variant]”: the self-aminoacylation was determined as 1.27 in the data set on biotinyl-Ile-oxazolone; 1.42 with biotinyl-Val-oxazolone; 1.38 with biotinyl-Met-oxazolone; 1.41 in the data set with biotinyl-Leu-oxazolone; 2.01 in the data set on biotinyl-Phe-oxazolone; 1.55 with biotinyl-Trp-oxazolone.

Take “CUACUUCCAACAAUCGAUCUG [Fam1A.1 aminoacylation ribozyme variant]”: the self-aminoacylation is 0.747 in the data set with biotinyl-Ile-oxazolone; 0.549 in the data set with biotinyl-Val-oxazolone; 0.494 with biotinyl-Met-oxazolone; 0.664 with biotinyl-Leu-oxazolone; 0.773 in the data set on biotinyl-Phe-oxazolone; 0.608 in the data set with biotinyl-Trp-oxazolone.

With “CUACUUCAAACAAACGGUCUG [Fam1A.1 aminoacylation ribozyme variant]”, the self-aminoacylation was 0.77 with biotinyl-Ile-oxazolone; 0.812 in the data set on biotinyl-Val-oxazolone; 0.664 with biotinyl-Met-oxazolone; 0.666 in the data set with biotinyl-Leu-oxazolone; 0.894 in the data set with biotinyl-Phe-oxazolone; 0.615 in the data set with biotinyl-Trp-oxazolone.

With “CUACUUCCAACAAUCGGUCUG [Fam1A.1 aminoacylation ribozyme variant]”, the self-aminoacylation is 0.766 with biotinyl-Ile-oxazolone; 0.768 in the data set with biotinyl-Val-oxazolone; 0.722 in the data set with biotinyl-Met-oxazolone; 0.702 with biotinyl-Leu-oxazolone; 1.11 with biotinyl-Phe-oxazolone; 0.831 in the data set on biotinyl-Trp-oxazolone.

Turning to “CUACUUCAAACAAUCGGGAUG [Fam1A.1 aminoacylation ribozyme variant]”, the self-aminoacylation was 0.904 in the data set on biotinyl-Ile-oxazolone; 1.02 in the data set on biotinyl-Val-oxazolone; 0.844 with biotinyl-Met-oxazolone; 1.19 with biotinyl-Leu-oxazolone; 5.85 with biotinyl-Phe-oxazolone; 4.46 in the data set on biotinyl-Trp-oxazolone.

Take “CUACUACAAAGAAUCGGUCUG [Fam1A.1 aminoacylation ribozyme variant]”: the self-aminoacylation in the data set on biotinyl-Ile-oxazolone was 0.781; with biotinyl-Val-oxazolone it was 0.54; in the data set with biotinyl-Met-oxazolone, 0.788; in the data set with biotinyl-Leu-oxazolone, 0.775; in the data set on biotinyl-Phe-oxazolone, 0.547; in the data set with biotinyl-Trp-oxazolone it was 0.8.

On to “ACACACUUCAAGAAAUCGGUC [Fam1B.1 aminoacylation ribozyme variant]”, for which the self-aminoacylation is 1.24 in the data set with biotinyl-Ile-oxazolone; 1.27 with biotinyl-Val-oxazolone; 1.41 with biotinyl-Met-oxazolone; 1.32 with biotinyl-Leu-oxazolone; 5.64 in the data set with biotinyl-Phe-oxazolone; 4.86 in the data set with biotinyl-Trp-oxazolone.

Regarding “CAACACUUCAAGCCAUCGGUC [Fam1B.1 aminoacylation ribozyme variant]”, the self-aminoacylation in the data set with biotinyl-Ile-oxazolone was determined as 1.35; with biotinyl-Val-oxazolone, 1.48; in the data set with biotinyl-Met-oxazolone, 1.35; in the data set on biotinyl-Leu-oxazolone it was 1.74; with biotinyl-Phe-oxazolone, 1.04; with biotinyl-Trp-oxazolone it was 1.24.
